B1: TPD52L1 (parent)
chain: ISKKFGDMSYSIRHSISMPAMRNS

Our source for the protein stability index values is the supplement of paper PMC10567573.
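Further: lentivirally expressed fusions sorted by FACS into six bins by GFP to DsRed ratio, PSI derived from sequencing read proportions per bin multiplied by bin number.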

The variants in this data set derive from B1. Nature of the data set: protein stability index of a GFP-peptide fusion (GPS, HEK-293T) (PSI 1-6); higher = more stable. Conditions: c terminus: a fixed tail appended.
Consider ISKKFGDMSYSTRHSISMPAMRNS [I12T], for which the protein stability index was found to be 2.83.

Turning to ISKKFGDMSYSARHSISMPAMRNS [I12A], the protein stability index amounted to 2.55.

Turning to ISKKFGDMSYSKRHSISMPAMRNS [I12K], the protein stability index stood at 2.56.

As for ISKKFGDMSYSCRHSISMPAMRNS [I12C], the protein stability index is 1.54.

Turning to ISKKFGDMSYSGRHSISMPAMRNS [I12G], the protein stability index was 2.4.

On to ISKKFGDMSYSSRHSISMPAMRNS [I12S], for which the protein stability index is 2.41.

Consider ISKKFGDMSYSHRHSISMPAMRNS [I12H], for which the protein stability index came out at 2.6.

For ISKKFGDMSYSVRHSISMPAMRNS [I12V], the protein stability index was 2.28.

Consider ISKKFGDMSYSPRHSISMPAMRNS [I12P], for which the protein stability index stood at 2.98.

Turning to ISKKFGDMSYSRRHSISMPAMRNS [I12R], the protein stability index amounted to 2.86.

As for ISKKFGDMSYSERHSISMPAMRNS [I12E], the protein stability index was determined as 3.36.

For ISKKFGDMSYSWRHSISMPAMRNS [I12W], the protein stability index came out at 1.57.

For ISKKFGDMSYSLRHSISMPAMRNS [I12L], the protein stability index was found to be 2.71.

With ISKKFGDMSYSMRHSISMPAMRNS [I12M], the protein stability index was determined as 2.44.

Turning to ISKKFGDMSYSDRHSISMPAMRNS [I12D], the protein stability index stood at 3.07.

Consider ISKKFGDMSYSYRHSISMPAMRNS [I12Y], for which the protein stability index worked out at 2.37.

Take ISKKFGDMSYSNRHSISMPAMRNS [I12N]: the protein stability index was determined as 3.1.

Consider ISKKFGDMSYSFRHSISMPAMRNS [I12F], for which the protein stability index is 2.63.

In the case of ISKKFGDMSYSQRHSISMPAMRNS [I12Q], the protein stability index was 2.27.

As to ISKKFGDMSLSIRHSISMPAMRNS [Y10L], the protein stability index is 1.88.

Turning to ISKKFGDMSHSIRHSISMPAMRNS [Y10H], the protein stability index is 2.69.

Take ISKKFGDMSESIRHSISMPAMRNS [Y10E]: the protein stability index is 2.88.

In the case of ISKKFGDMSWSIRHSISMPAMRNS [Y10W], the protein stability index is 1.93.

Take ISKKFGDMSQSIRHSISMPAMRNS [Y10Q]: the protein stability index amounted to 2.76.

On to ISKKFGDMSVSIRHSISMPAMRNS [Y10V], for which the protein stability index turned out to be 2.94.

In the case of ISKKFGDMSRSIRHSISMPAMRNS [Y10R], the protein stability index is 2.41.

As for ISKKFGDMSKSIRHSISMPAMRNS [Y10K], the protein stability index came to 2.57.

On to ISKKFGDMSFSIRHSISMPAMRNS [Y10F], for which the protein stability index was determined as 2.01.

As for ISKKFGDMSNSIRHSISMPAMRNS [Y10N], the protein stability index is 2.73.

For ISKKFGDMSPSIRHSISMPAMRNS [Y10P], the protein stability index was 2.97.

As for ISKKFGDMSTSIRHSISMPAMRNS [Y10T], the protein stability index came out at 2.72.

Regarding ISKKFGDMSDSIRHSISMPAMRNS [Y10D], the protein stability index came to 2.98.

For ISKKFGDMSSSIRHSISMPAMRNS [Y10S], the protein stability index came out at 2.84.

Turning to ISKKFGDMSMSIRHSISMPAMRNS [Y10M], the protein stability index stood at 2.37.

On to ISKKFGDMSISIRHSISMPAMRNS [Y10I], for which the protein stability index worked out at 2.23.

As to ISKKFGDMSGSIRHSISMPAMRNS [Y10G], the protein stability index was 3.06.

In the case of ISKKFGDMSYQIRHSISMPAMRNS [S11Q], the protein stability index was found to be 2.22.

On to ISKKFGDMSYVIRHSISMPAMRNS [S11V], for which the protein stability index came to 2.49.

For ISKKFGDMSYKIRHSISMPAMRNS [S11K], the protein stability index was determined as 1.99.

For ISKKFGDMSYGIRHSISMPAMRNS [S11G], the protein stability index was 2.52.

For the variant ISKKFGDMSYMIRHSISMPAMRNS [S11M], the protein stability index stood at 2.03.

As for ISKKFGDMSYEIRHSISMPAMRNS [S11E], the protein stability index was 1.97.

Take ISKKFGDMSYWIRHSISMPAMRNS [S11W]: the protein stability index is 1.67.

With ISKKFGDMSYAIRHSISMPAMRNS [S11A], the protein stability index was found to be 2.51.

In the case of ISKKFGDMSYYIRHSISMPAMRNS [S11Y], the protein stability index worked out at 2.06.

In the case of ISKKFGDMSYNIRHSISMPAMRNS [S11N], the protein stability index is 2.74.

Regarding ISKKFGDMSYHIRHSISMPAMRNS [S11H], the protein stability index came to 2.41.

For the variant ISKKFGDMSYCIRHSISMPAMRNS [S11C], the protein stability index turned out to be 1.88.

Turning to ISKKFGDMSYTIRHSISMPAMRNS [S11T], the protein stability index was 2.38.

For ISKKFGDMSYRIRHSISMPAMRNS [S11R], the protein stability index amounted to 2.24.

In the case of ISKKFGDMSYLIRHSISMPAMRNS [S11L], the protein stability index was 2.75.

For ISKKFGDMSYPIRHSISMPAMRNS [S11P], the protein stability index was 2.58.

Consider ISKKFGDMSYIIRHSISMPAMRNS [S11I], for which the protein stability index turned out to be 2.03.

Consider ISKKFGDMSYDIRHSISMPAMRNS [S11D], for which the protein stability index came to 2.68.

On to ISKKFGDMSYFIRHSISMPAMRNS [S11F], for which the protein stability index was 1.91.

With ISKKFGDMSYSIRHCISMPAMRNS [S15C], the protein stability index worked out at 2.23.

In the case of ISKKFGDMSYSIRHAISMPAMRNS [S15A], the protein stability index worked out at 2.23.

As to ISKKFGDMSYSIRNSISMPAMRNS [H14N], the protein stability index was found to be 2.38.

Regarding ISKKFGDMSYSIRSSISMPAMRNS [H14S], the protein stability index amounted to 1.8.

ISKKFGDMSYSIRMSISMPAMRNS [H14M]: the protein stability index came to 2.44.

In the case of ISKKFGDMSYSIRISISMPAMRNS [H14I], the protein stability index was 2.73.

For ISKKFGDMSYSIRCSISMPAMRNS [H14C], the protein stability index stood at 2.73.

For the variant ISKKFGDMSYSIRESISMPAMRNS [H14E], the protein stability index was 2.33.

Turning to ISKKFGDMSYSIRLSISMPAMRNS [H14L], the protein stability index was 3.05.

In the case of ISKKFGDMSYSIRRSISMPAMRNS [H14R], the protein stability index worked out at 3.72.

Consider ISKKFGDMSYSIRYSISMPAMRNS [H14Y], for which the protein stability index was 1.7.

For the variant ISKKFGDMSYSIRASISMPAMRNS [H14A], the protein stability index worked out at 2.15.

For ISKKFGDMSYSIRDSISMPAMRNS [H14D], the protein stability index worked out at 3.35.

ISKKFGDMSYSIRPSISMPAMRNS [H14P]: the protein stability index was 2.56.

With ISKKFGDMSYSIRGSISMPAMRNS [H14G], the protein stability index was 1.88.

For ISKKFGDMSYSIRQSISMPAMRNS [H14Q], the protein stability index amounted to 2.28.

With ISKKFGDMSYSIRVSISMPAMRNS [H14V], the protein stability index amounted to 4.3.

For the variant ISKKFGDMSYSIRFSISMPAMRNS [H14F], the protein stability index stood at 2.49.

For ISKKFGDMSYSIRTSISMPAMRNS [H14T], the protein stability index came to 1.9.

For the variant ISKKFGDMSYSIRKSISMPAMRNS [H14K], the protein stability index was determined as 2.69.

Turning to ISKKFGDMSYSIIHSISMPAMRNS [R13I], the protein stability index is 1.64.

Consider ISKKFGDMSYSINHSISMPAMRNS [R13N], for which the protein stability index was 2.1.

For the variant ISKKFGDMSYSISHSISMPAMRNS [R13S], the protein stability index was determined as 2.02.

For ISKKFGDMSYSIVHSISMPAMRNS [R13V], the protein stability index came to 2.6.

As for ISKKFGDMSYSITHSISMPAMRNS [R13T], the protein stability index came out at 2.01.

For ISKKFGDMSYSIDHSISMPAMRNS [R13D], the protein stability index was 2.49.

Consider ISKKFGDMSYSICHSISMPAMRNS [R13C], for which the protein stability index stood at 1.78.

With ISKKFGDMSYSIQHSISMPAMRNS [R13Q], the protein stability index was 2.05.

On to ISKKFGDMSYSIMHSISMPAMRNS [R13M], for which the protein stability index is 1.89.

As for ISKKFGDMSYSIYHSISMPAMRNS [R13Y], the protein stability index was 1.45.

With ISKKFGDMSYSIPHSISMPAMRNS [R13P], the protein stability index was found to be 2.67.

ISKKFGDMSYSIGHSISMPAMRNS [R13G]: the protein stability index turned out to be 2.45.

Consider ISKKFGDMSYSIKHSISMPAMRNS [R13K], for which the protein stability index was found to be 2.14.

ISKKFGDMSYSILHSISMPAMRNS [R13L]: the protein stability index was 1.77.

Turning to ISKKFGDMSYSIWHSISMPAMRNS [R13W], the protein stability index turned out to be 2.29.

Regarding ISKKFGDMSYSIFHSISMPAMRNS [R13F], the protein stability index came to 2.01.

As to ISKKFGDMSYSIHHSISMPAMRNS [R13H], the protein stability index was 2.37.

As for ISKKFGDMSYSIAHSISMPAMRNS [R13A], the protein stability index is 2.21.

ISKKFGDMSYSIEHSISMPAMRNS [R13E]: the protein stability index was 2.48.
